Measured values: the supplement of paper PMC11246515
± gives the standard deviation of the averaged measurements.

Assay: total protein half-life in vivo (active degradation + dilution); higher = more stable protein
[1] = E. coli NCM3722 delta-clpP delta-lon delta-hslV, growth: N-lim chemostat, doubling time 6 h
[2] = E. coli NCM3722 delta-hslV, growth: N-lim chemostat, doubling time 6 h
[3] = E. coli NCM3722 delta-lon, growth: N-lim chemostat, doubling time 6 h
[4] = E. coli NCM3722 delta-smpB, growth: N-lim chemostat, doubling time 6 h
[5] = wild type E. coli NCM3722, growth: C-lim chemostat, doubling time 3 h
[6] = wild type E. coli NCM3722, growth: C-lim chemostat, doubling time 6 h
[7] = wild type E. coli NCM3722, growth: C-lim chemostat, doubling time 12 h
[8] = wild type E. coli NCM3722, growth: N-lim chemostat, doubling time 6 h
[9] = wild type E. coli NCM3722, growth: N-lim chemostat, doubling time 12 h
[10] = wild type E. coli NCM3722, growth: P-lim chemostat, doubling time 6 h
[11] = wild type E. coli NCM3722, growth: P-lim chemostat, doubling time 12 h
[12] = E. coli NCM3722 delta-clpP, growth: N-lim chemostat, doubling time 6 h

MKSLQALFGGTFDPVHYGHLKPVETLANLIGLTRVTIIPNNVPPHRPQPEANSVQRKHMLELAIADKPLFTLDERELKRNAPSYTAQTLKEWRQEQGPDVPLAFIIGQDSLLTFPTWYEYETILDNAHLIVCRRPGYPLEMAQPQYQQWLEDHLTHNPEDLHLQPAGKIYLAETPWFNISATIIRERLQNGESCEDLLPEPVLTYINQQGLYR [P0A752]
total protein half-life in vivo [1]: 4.39 ± 0.63 h | total protein half-life in vivo [2]: 5 ± 0.32 h | total protein half-life in vivo [3]: 5.03 ± 0.38 h | total protein half-life in vivo [4]: 4.2 ± 0.31 h | total protein half-life in vivo [5]: 3.34 ± 0.12 h | total protein half-life in vivo [6]: 4.95 ± 0.23 h | total protein half-life in vivo [7]: 11.3 ± 2.1 h | total protein half-life in vivo [8]: 4.49 h | total protein half-life in vivo [9]: 7.22 ± 0.54 h | total protein half-life in vivo [10]: 5.47 h | total protein half-life in vivo [11]: 8.78 ± 2.9 h

MKSLSYKRIYKSQEYLATLGTIEYRSLFGSYSLTVDDTVFAMVSDGELYLRACEQSAQYCVKHPPVWLTYKKCGRSVTLNYYRVDESLWRNQLKLVRLSKYSLDAALKEKSTRNTRERLKDLPNMSFHLEAILGEVGIKDVRALRILGAKMCWLRLRQQNSLVTEKILFMLEGAIIGIHEAALPVARRQELAEWADSLTPKQEFPAELE
total protein half-life in vivo [1]: 5.96 h | total protein half-life in vivo [5]: 2.28 h | total protein half-life in vivo [6]: 4.19 h | total protein half-life in vivo [7]: 9.22 h | total protein half-life in vivo [10]: 3.79 ± 0.53 h

MKSMNIAASSELVSRLSSHRRVVALGDTDFTDVAAVVITAADSRSGILALLKRTGFHLPVFLYSEHAVELPAGVTAVINGNEQQWLELESAACQYEENLLPPFYDTLTQYVEMGNSTFACPGHQHGAFFKKHPAGRHFYDFFGENVFRADMCNADVKLGDLLIHEGSAKDAQKFAAKVFHADKTYFVLNGTSAANKVVTNALLTRGDLVLFDRNNHKSNHHGALIQAGATPVYLEASRNPFGFIGGIDAHCFNEEYLRQQIRDVAPEKADLPRPYRLAIIQLGTYDGTVYNARQVIDTVGHLCDYILFDSAWVGYEQFIPMMADSSPLLLELNENDPGIFVTQSVHKQQAGFSQTSQIHKKDNHIRGQARFCPHKRLNNAFMLHASTSPFYPLFAALDVNAKIHEGESGRRLWAECVEIGIEARKAILARCKLFRPFIPPVVDGKLWQDYPTSVLASDRRFFSFEPGAKWHGFEGYAADQYFVDPCKLLLTTPGIDAETGEYSDFGVPATILAHYLRENGIVPEKCDLNSILFLLTPAESHEKLAQLVAMLAQFEQHIEDDSPLVEVLPSVYNKYPVRYRDYTLRQLCQEMHDLYVSFDVKDLQKAMFRQQSFPSVVMNPQDAHSAYIRGDVELVRIRDAEGRIAAEGALPYPPGVLCVVPGEVWGGAVQRYFLALEEGVNLLPGFSPELQGVYSETDADGVKRLYGYVLK
total protein half-life in vivo [1]: 4.97 ± 0.45 h | total protein half-life in vivo [12]: 4.68 ± 0.86 h | total protein half-life in vivo [2]: 4.28 ± 0.14 h | total protein half-life in vivo [3]: 4.69 ± 0.36 h | total protein half-life in vivo [4]: 4.34 ± 0.089 h | total protein half-life in vivo [6]: 5.18 ± 0.13 h | total protein half-life in vivo [7]: 8.46 ± 1.1 h | total protein half-life in vivo [8]: 4.44 ± 0.13 h | total protein half-life in vivo [9]: 8.46 ± 0.59 h | total protein half-life in vivo [10]: 6.15 ± 0.14 h | total protein half-life in vivo [11]: 12.3 ± 1.8 h

MKSRAAVAFAPGKPLEIVEIDVAPPKKGEVLIKVTHTGVCHTDAFTLSGDDPEGVFPVVLGHEGAGVVVEVGEGVTSVKPGDHVIPLYTAECGECEFCRSGKTNLCVAVRETQGKGLMPDGTTRFSYNGQPLYHYMGCSTFSEYTVVAEVSLAKINPEANHEHVCLLGCGVTTGIGAVHNTAKVQPGDSVAVFGLGAIGLAVVQGARQAKAGRIIAIDTNPKKFDLARRFGATDCINPNDYDKPIKDVLLDINKWGIDHTFECIGNVNVMRAALESAHRGWGQSVIIGVAVAGQEISTRPFQLVTGRVWKGSAFGGVKGRSQLPGMVEDAMKGDIDLEPFVTHTMSLDEINDAFDLMHEGKSIRTVIRY
total protein half-life in vivo [1]: 5.33 ± 0.98 h | total protein half-life in vivo [12]: 4.73 ± 0.68 h | total protein half-life in vivo [2]: 4.43 ± 0.28 h | total protein half-life in vivo [3]: 4.95 ± 0.45 h | total protein half-life in vivo [4]: 4.24 ± 0.45 h | total protein half-life in vivo [5]: 2.68 ± 0.26 h | total protein half-life in vivo [6]: 5.87 ± 0.69 h | total protein half-life in vivo [7]: 10.1 ± 1 h | total protein half-life in vivo [8]: 4.1 ± 0.47 h | total protein half-life in vivo [9]: 6.819 ± 0.021 h | total protein half-life in vivo [10]: 5.6 ± 0.19 h | total protein half-life in vivo [11]: 11.4 ± 0.52 h

MKSSTTIITAYFDIGRGDWTANKGFREKLARSVDVYFSYFERLAALENEMIIFTSPDLKPRVEAIRNGKPTTVIVIDIKKKFRYIRSRIEKIQKDESFTNRLEPRQLKNPEYWSPEYVLVCNLKAYFVNKAINMGLVKTPLVAWIDFGYCHKPNVTRGLKIWDFPFDESKMHLFTIKKGLTVTSQQQVFDFMIGNHVYIIGGAIVGSQHKWKEFYKLVLESQKITLNNNIVDDDQGIFVMCYYKRPDLFNLNYLGRGKWFDLFRCFRSNTLGAKMQALRIFLSRK
total protein half-life in vivo [1]: 6.61 ± 0.098 h | total protein half-life in vivo [12]: 6.18 ± 0.28 h | total protein half-life in vivo [2]: 5.99 ± 0.11 h | total protein half-life in vivo [3]: 6.49 ± 0.38 h | total protein half-life in vivo [4]: 5.52 ± 0.26 h | total protein half-life in vivo [5]: 2.82 ± 0.13 h | total protein half-life in vivo [6]: 5.548 ± 0.042 h | total protein half-life in vivo [7]: 10.7 ± 0.57 h | total protein half-life in vivo [8]: 5.82 ± 0.57 h | total protein half-life in vivo [9]: 11.6 ± 0.62 h | total protein half-life in vivo [10]: 5.85 ± 0.86 h | total protein half-life in vivo [11]: 11.4 ± 0.17 h

MKTETPSVKIVAITADEAGQRIDNFLRTQLKGVPKSMIYRILRKGEVRVNKKRIKPEYKLEAGDEVRIPPVRVAEREEEAVSPHLQKVAALADVILYEDDHILVLNKPSGTAVHGGSGLSFGVIEGLRALRPEARFLELVHRLDRDTSGVLLVAKKRSALRSLHEQLREKGMQKDYLALVRGQWQSHVKSVQAPLLKNILQSGERIVRVSQEGKPSETRFKVEERYAFATLVRCSPVTGRTHQIRVHTQYAGHPIAFDDRYGDREFDRQLTEAGTGLNRLFLHAAALKFTHPGTGEVMRIEAPMDEGLKRCLQKLRNAR [P0AA39]
total protein half-life in vivo [1]: 5.63 ± 0.067 h | total protein half-life in vivo [12]: 5.2 ± 0.19 h | total protein half-life in vivo [2]: 5.84 ± 1 h | total protein half-life in vivo [3]: 5.68 ± 0.26 h | total protein half-life in vivo [4]: 5.43 ± 0.88 h | total protein half-life in vivo [5]: 3.01 ± 0.092 h | total protein half-life in vivo [6]: 5.78 ± 0.14 h | total protein half-life in vivo [7]: 9.77 ± 0.8 h | total protein half-life in vivo [8]: 5.21 ± 0.31 h | total protein half-life in vivo [9]: 9.13 ± 0.59 h | total protein half-life in vivo [10]: 5.56 ± 0.089 h | total protein half-life in vivo [11]: 11.6 ± 0.92 h
